Experimental data: publication PMC3530167

Target: HLA-DM wild type, biotinylated at a BirA site on the C-terminus of DMα (human) (UniProt P28067)
Assay: SPR

Sequence of UniProt P28067 (P28067 27-261, chain 1 of 2): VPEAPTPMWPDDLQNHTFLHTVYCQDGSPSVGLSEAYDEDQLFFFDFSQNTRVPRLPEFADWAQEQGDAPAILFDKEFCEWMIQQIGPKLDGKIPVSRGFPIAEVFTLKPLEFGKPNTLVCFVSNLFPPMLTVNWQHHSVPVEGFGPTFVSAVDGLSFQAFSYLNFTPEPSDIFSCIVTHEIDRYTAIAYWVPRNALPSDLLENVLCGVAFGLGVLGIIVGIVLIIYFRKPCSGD
Sequence of UniProt P28067 (P28068 19-263, chain 2 of 2, further chain): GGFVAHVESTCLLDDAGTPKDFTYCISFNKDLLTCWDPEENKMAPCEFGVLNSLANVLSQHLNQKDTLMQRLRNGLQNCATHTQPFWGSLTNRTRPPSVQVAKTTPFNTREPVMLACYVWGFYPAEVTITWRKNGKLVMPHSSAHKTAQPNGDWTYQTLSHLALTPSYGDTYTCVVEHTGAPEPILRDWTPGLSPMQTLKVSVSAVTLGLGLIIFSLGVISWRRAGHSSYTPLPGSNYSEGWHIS

Question: With “HLA-DR1 with a covalently linked, N-terminally truncated HA-like peptide (P2 to P11) (peptide-MHC)” as the substance, how does the fold lower affinity at pH 6.5 than at pH 5.5 read?
Answer: 3 fold
